Measured values taken from patent US20140087995A1 (published 2014).
Numbered stars: 1 amine (or outer) side, 2 acyl side, 3 side chain; on linkers, the order of the positions; unused ones are H or OH. Bridge positions count the residues as written; N and C are the ends. Side chains are listed from the residue outwards. Ends that are not written are not given here. * marks the point of attachment. C20 diacid = O=C(O)CCCCCCCCCCCCCCCCCCC(=O)*; γGlu = O=C(O)[C@H](CCC(=O)[*:2])N[*:1]; AEEA = NCCOCCOCC(=O)O

T1: human calcitonin receptor (human, UniProt P30988 25-474)
T1 sequence (looked up): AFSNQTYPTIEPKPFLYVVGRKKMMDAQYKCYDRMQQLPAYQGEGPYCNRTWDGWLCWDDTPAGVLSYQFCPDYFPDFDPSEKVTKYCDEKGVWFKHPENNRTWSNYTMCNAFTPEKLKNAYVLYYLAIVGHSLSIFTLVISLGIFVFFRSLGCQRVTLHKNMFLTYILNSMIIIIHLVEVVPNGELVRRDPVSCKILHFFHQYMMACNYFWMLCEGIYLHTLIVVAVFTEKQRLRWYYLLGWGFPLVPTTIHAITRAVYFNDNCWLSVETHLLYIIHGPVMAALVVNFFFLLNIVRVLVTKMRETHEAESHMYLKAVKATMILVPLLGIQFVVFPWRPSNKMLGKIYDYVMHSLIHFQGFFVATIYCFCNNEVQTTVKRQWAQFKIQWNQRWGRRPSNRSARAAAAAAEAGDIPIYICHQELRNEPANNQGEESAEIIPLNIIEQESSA

T2: human calcitonin receptor (human, UniProt P30988 25-474)
T2 construct: whole, on cells; also called hCTR; hCT
T2 sequence (looked up): T1 sequence (looked up)

B1: N^α1-[2-[2-[2-[[2-[2-[2-[[(4S)-4-carboxy-4-(19-carboxynonadecanoylamino)butanoyl]amino]ethoxy]ethoxy]acetyl]amino]ethoxy]ethoxy]acetyl]-[Glu14,Arg17,Pro21,Pro27 … (peptide)
peptide: {C20 diacid-γGlu-AEEA-AEEA}-KCNTATCATQRLAEFLRHSSPNFGAIPSSTNVGSNTP-NH2
modifications: disulfide 2-7
SMILES: CC[C@H](C)[C@H](NC(=O)[C@H](C)NC(=O)CNC(=O)[C@H](Cc1ccccc1)NC(=O)[C@H](CC(N)=O)NC(=O)[C@@H]1CCCN1C(=O)[C@H](CO)NC(=O)[C@H](CO)NC(=O)[C@H](Cc1c[nH]cn1)NC(=O)[C@H](CCCNC(=N)N)NC(=O)[C@H](CC(C)C)NC(=O)[C@H](Cc1ccccc1)NC(=O)[C@H](CCC(=O)O)NC(=O)[C@H](C)NC(=O)[C@H](CC(C)C)NC(=O)[C@H](CCCNC(=N)N)NC(=O)[C@H](CCC(N)=O)NC(=O)[C@@H](NC(=O)[C@H](C)NC(=O)[C@@H]1CSSC[C@H](NC(=O)[C@H](CCCCN)NC(=O)COCCOCCNC(=O)COCCOCCNC(=O)CC[C@H](NC(=O)CCCCCCCCCCCCCCCCCCC(=O)O)C(=O)O)C(=O)N[C@@H](CC(N)=O)C(=O)N[C@@H]([C@@H](C)O)C(=O)N[C@@H](C)C(=O)N[C@@H]([C@@H](C)O)C(=O)N1)[C@@H](C)O)C(=O)N1CCC[C@H]1C(=O)N[C@@H](CO)C(=O)N[C@@H](CO)C(=O)N[C@H](C(=O)N[C@@H](CC(N)=O)C(=O)N[C@H](C(=O)NCC(=O)N[C@@H](CO)C(=O)N[C@@H](CC(N)=O)C(=O)N[C@H](C(=O)N1CCC[C@H]1C(N)=O)[C@@H](C)O)C(C)C)[C@@H](C)O
notes: Synthetic acylated analogue of human amylin; also called compound 20
B2: N^α1-[(4S)-4-carboxy-4-(19-carboxynonadecanoylamino)butanoyl]-[Asp14,Arg17,Pro21,Pro27,Pro37]-h-amylin (peptide)
peptide: {C20 diacid-γGlu}-KCNTATCATQRLADFLRHSSPNFGAIPSSTNVGSNTP-NH2
modifications: disulfide 2-7
SMILES: CC[C@H](C)[C@H](NC(=O)[C@H](C)NC(=O)CNC(=O)[C@H](Cc1ccccc1)NC(=O)[C@H](CC(N)=O)NC(=O)[C@@H]1CCCN1C(=O)[C@H](CO)NC(=O)[C@H](CO)NC(=O)[C@H](Cc1c[nH]cn1)NC(=O)[C@H](CCCNC(=N)N)NC(=O)[C@H](CC(C)C)NC(=O)[C@H](Cc1ccccc1)NC(=O)[C@H](CC(=O)O)NC(=O)[C@H](C)NC(=O)[C@H](CC(C)C)NC(=O)[C@H](CCCNC(=N)N)NC(=O)[C@H](CCC(N)=O)NC(=O)[C@@H](NC(=O)[C@H](C)NC(=O)[C@@H]1CSSC[C@H](NC(=O)[C@H](CCCCN)NC(=O)CC[C@H](NC(=O)CCCCCCCCCCCCCCCCCCC(=O)O)C(=O)O)C(=O)N[C@@H](CC(N)=O)C(=O)N[C@@H]([C@@H](C)O)C(=O)N[C@@H](C)C(=O)N[C@@H]([C@@H](C)O)C(=O)N1)[C@@H](C)O)C(=O)N1CCC[C@H]1C(=O)N[C@@H](CO)C(=O)N[C@@H](CO)C(=O)N[C@H](C(=O)N[C@@H](CC(N)=O)C(=O)N[C@H](C(=O)NCC(=O)N[C@@H](CO)C(=O)N[C@@H](CC(N)=O)C(=O)N[C@H](C(=O)N1CCC[C@H]1C(N)=O)[C@@H](C)O)C(C)C)[C@@H](C)O
notes: Synthetic acylated analogue of human amylin; also called compound 10
B3: N^α1-[(4S)-4-carboxy-4-(19-carboxynonadecanoylamino)butanoyl]-[Glu14,Arg17,Pro21,Pro26,Pro37]-h-amylin (peptide)
peptide: {C20 diacid-γGlu}-KCNTATCATQRLAEFLRHSSPNFGAPLSSTNVGSNTP-NH2
modifications: disulfide 2-7
SMILES: CC(C)C[C@H](NC(=O)[C@H](CCCNC(=N)N)NC(=O)[C@H](CCC(N)=O)NC(=O)[C@@H](NC(=O)[C@H](C)NC(=O)[C@@H]1CSSC[C@H](NC(=O)[C@H](CCCCN)NC(=O)CC[C@H](NC(=O)CCCCCCCCCCCCCCCCCCC(=O)O)C(=O)O)C(=O)N[C@@H](CC(N)=O)C(=O)N[C@@H]([C@@H](C)O)C(=O)N[C@@H](C)C(=O)N[C@@H]([C@@H](C)O)C(=O)N1)[C@@H](C)O)C(=O)N[C@@H](C)C(=O)N[C@@H](CCC(=O)O)C(=O)N[C@@H](Cc1ccccc1)C(=O)N[C@@H](CC(C)C)C(=O)N[C@@H](CCCNC(=N)N)C(=O)N[C@@H](Cc1c[nH]cn1)C(=O)N[C@@H](CO)C(=O)N[C@@H](CO)C(=O)N1CCC[C@H]1C(=O)N[C@@H](CC(N)=O)C(=O)N[C@@H](Cc1ccccc1)C(=O)NCC(=O)N[C@@H](C)C(=O)N1CCC[C@H]1C(=O)N[C@@H](CC(C)C)C(=O)N[C@@H](CO)C(=O)N[C@@H](CO)C(=O)N[C@H](C(=O)N[C@@H](CC(N)=O)C(=O)N[C@H](C(=O)NCC(=O)N[C@@H](CO)C(=O)N[C@@H](CC(N)=O)C(=O)N[C@H](C(=O)N1CCC[C@H]1C(N)=O)[C@@H](C)O)C(C)C)[C@@H](C)O
notes: Synthetic acylated analogue of human amylin; also called compound 5
B4: N^α1-[(4S)-4-carboxy-4-(19-carboxynonadecanoylamino)butanoyl]-[Glu14,Arg17,Pro21,Pro25,Pro28,Pro29,Pro37]-h-amylin (peptide)
peptide: {C20 diacid-γGlu}-KCNTATCATQRLAEFLRHSSPNFGPILPPTNVGSNTP-NH2
modifications: disulfide 2-7
SMILES: CC[C@H](C)[C@H](NC(=O)[C@@H]1CCCN1C(=O)CNC(=O)[C@H](Cc1ccccc1)NC(=O)[C@H](CC(N)=O)NC(=O)[C@@H]1CCCN1C(=O)[C@H](CO)NC(=O)[C@H](CO)NC(=O)[C@H](Cc1c[nH]cn1)NC(=O)[C@H](CCCNC(=N)N)NC(=O)[C@H](CC(C)C)NC(=O)[C@H](Cc1ccccc1)NC(=O)[C@H](CCC(=O)O)NC(=O)[C@H](C)NC(=O)[C@H](CC(C)C)NC(=O)[C@H](CCCNC(=N)N)NC(=O)[C@H](CCC(N)=O)NC(=O)[C@@H](NC(=O)[C@H](C)NC(=O)[C@@H]1CSSC[C@H](NC(=O)[C@H](CCCCN)NC(=O)CC[C@H](NC(=O)CCCCCCCCCCCCCCCCCCC(=O)O)C(=O)O)C(=O)N[C@@H](CC(N)=O)C(=O)N[C@@H]([C@@H](C)O)C(=O)N[C@@H](C)C(=O)N[C@@H]([C@@H](C)O)C(=O)N1)[C@@H](C)O)C(=O)N[C@@H](CC(C)C)C(=O)N1CCC[C@H]1C(=O)N1CCC[C@H]1C(=O)N[C@H](C(=O)N[C@@H](CC(N)=O)C(=O)N[C@H](C(=O)NCC(=O)N[C@@H](CO)C(=O)N[C@@H](CC(N)=O)C(=O)N[C@H](C(=O)N1CCC[C@H]1C(N)=O)[C@@H](C)O)C(C)C)[C@@H](C)O
notes: Synthetic acylated analogue of human amylin; also called compound 4
B5: N^ε1-[(4S)-4-carboxy-4-[[(4S)-4-carboxy-4-(19-carboxynonadecanoylamino)butanoyl]amino]butanoyl]-[Glu14,Arg17,Pro21,Pro27,Pro34,Phe37]-h-amylin (peptide)
peptide: K([γGlu-γGlu-C20 diacid])CNTATCATQRLAEFLRHSSPNFGAIPSSTNVGPNTF-NH2
modifications: disulfide 2-7; N-terminus assumed
SMILES: CC[C@H](C)[C@H](NC(=O)[C@H](C)NC(=O)CNC(=O)[C@H](Cc1ccccc1)NC(=O)[C@H](CC(N)=O)NC(=O)[C@@H]1CCCN1C(=O)[C@H](CO)NC(=O)[C@H](CO)NC(=O)[C@H](Cc1c[nH]cn1)NC(=O)[C@H](CCCNC(=N)N)NC(=O)[C@H](CC(C)C)NC(=O)[C@H](Cc1ccccc1)NC(=O)[C@H](CCC(=O)O)NC(=O)[C@H](C)NC(=O)[C@H](CC(C)C)NC(=O)[C@H](CCCNC(=N)N)NC(=O)[C@H](CCC(N)=O)NC(=O)[C@@H](NC(=O)[C@H](C)NC(=O)[C@@H]1CSSC[C@H](NC(=O)[C@@H](N)CCCCNC(=O)CC[C@H](NC(=O)CC[C@H](NC(=O)CCCCCCCCCCCCCCCCCCC(=O)O)C(=O)O)C(=O)O)C(=O)N[C@@H](CC(N)=O)C(=O)N[C@@H]([C@@H](C)O)C(=O)N[C@@H](C)C(=O)N[C@@H]([C@@H](C)O)C(=O)N1)[C@@H](C)O)C(=O)N1CCC[C@H]1C(=O)N[C@@H](CO)C(=O)N[C@@H](CO)C(=O)N[C@H](C(=O)N[C@@H](CC(N)=O)C(=O)N[C@H](C(=O)NCC(=O)N1CCC[C@H]1C(=O)N[C@@H](CC(N)=O)C(=O)N[C@H](C(=O)N[C@@H](Cc1ccccc1)C(N)=O)[C@@H](C)O)C(C)C)[C@@H](C)O
B6: N^ε1-[(4S)-4-carboxy-4-[[(4S)-4-carboxy-4-(19-carboxynonadecanoylamino)butanoyl]amino]butanoyl]-[Ser14,Arg17,Pro21,Pro27,Pro34,Glu35]-h-amylin (peptide)
peptide: K([γGlu-γGlu-C20 diacid])CNTATCATQRLASFLRHSSPNFGAIPSSTNVGPETY-NH2
modifications: disulfide 2-7; N-terminus assumed
SMILES: CC[C@H](C)[C@H](NC(=O)[C@H](C)NC(=O)CNC(=O)[C@H](Cc1ccccc1)NC(=O)[C@H](CC(N)=O)NC(=O)[C@@H]1CCCN1C(=O)[C@H](CO)NC(=O)[C@H](CO)NC(=O)[C@H](Cc1c[nH]cn1)NC(=O)[C@H](CCCNC(=N)N)NC(=O)[C@H](CC(C)C)NC(=O)[C@H](Cc1ccccc1)NC(=O)[C@H](CO)NC(=O)[C@H](C)NC(=O)[C@H](CC(C)C)NC(=O)[C@H](CCCNC(=N)N)NC(=O)[C@H](CCC(N)=O)NC(=O)[C@@H](NC(=O)[C@H](C)NC(=O)[C@@H]1CSSC[C@H](NC(=O)[C@@H](N)CCCCNC(=O)CC[C@H](NC(=O)CC[C@H](NC(=O)CCCCCCCCCCCCCCCCCCC(=O)O)C(=O)O)C(=O)O)C(=O)N[C@@H](CC(N)=O)C(=O)N[C@@H]([C@@H](C)O)C(=O)N[C@@H](C)C(=O)N[C@@H]([C@@H](C)O)C(=O)N1)[C@@H](C)O)C(=O)N1CCC[C@H]1C(=O)N[C@@H](CO)C(=O)N[C@@H](CO)C(=O)N[C@H](C(=O)N[C@@H](CC(N)=O)C(=O)N[C@H](C(=O)NCC(=O)N1CCC[C@H]1C(=O)N[C@@H](CCC(=O)O)C(=O)N[C@H](C(=O)N[C@@H](Cc1ccc(O)cc1)C(N)=O)[C@@H](C)O)C(C)C)[C@@H](C)O
notes: also called compound 120
B7: N^ε1-[(4S)-4-carboxy-4-[[(4S)-4-carboxy-4-(19-carboxynonadecanoylamino)butanoyl]amino]butanoyl]-[Glu14,Arg17,Pro21,Pro31,Pro34,Glu35]-h-amylin (peptide)
peptide: K([γGlu-γGlu-C20 diacid])CNTATCATQRLAEFLRHSSPNFGAILSSTPVGPETY-NH2
modifications: disulfide 2-7 (inferred)

Each binder was assayed against T1, human calcitonin receptor (assay: cell-based or functional assay).

Binder | hCTR funct. EC50 (CRE luciferase reporter, BHK cells) [pM]
B1 | 285
B2 | 70
B3 | 160
B4 | 70

These binders were tested against T2, human calcitonin receptor (assay: ratio of IC50 at human calcitonin receptor to IC50 at human amylin receptor (SPA competition assays)).
How it was run: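 Membranes (35 ng/μL final) + SPA beads, 50 mM Hepes pH 7.4 buffer with 1 mM CaCl2, 5 mM MgCl₂, 0.1% OA, 0.02% Tween20; 120 min, 25° C, shaking; centrifuged, counted; IC₅₀ by one-site binding competition.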

Binder | Ratio hCT/hAmylin binding
B5 | 18
B6 | 45.3
B7 | 22.6

These binders were tested against T2, human calcitonin receptor (assay: SPA competition against 125I-calcitonin, membranes of BHK cells with human calcitonin receptor (Assay VII)).
How it was run: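 BHK hCTR membranes 35 ng/μL + SPA beads 0.05 mg/well; buffer 50 mM Hepes pH 7.4, 1 mM CaCl2, 5 mM MgCl₂, 0.1% OA, 0.02% Tween20. 120 min, 25° C., shaking. Scintillation count; IC50 by one-site binding competition.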

Binder | IC50 [pM]
B5 | 2730
B6 | 3440
B7 | 1560
